Measured values taken from patent US20210340246A1 (GlaxoSmithKline, published 2021).

Target: T1, human IL-5 (human, UniProt P05113 20-134)
T1 construct: The IL-5 reagent of the SPR assay is not described further; also called interleukin-5; soluble IL-5
Assay: standard surface plasmon resonance assays

B1: mepolizumab (monoclonal anti-IL-5 antibody; unstressed composition / control samples) (antibody, human IgG1, kappa)
heavy: not shown
light: not shown
modifications: N-terminal Gln cyclised to pyroglutamate (typically >95.0%); C-terminal K449 clipped (typically >98.0%); N299 N-glycosylated
notes: Batches MDS1 T04L003S and MDS2 T0413010; also called Oxidation Control; Light Exposure Control
Kd: < 22.9 pM
